Data published in article PMC9868088.

What was measured:
[1] = WB abundance of GFP-β-catenin; conditions: glycan gained; control: GFP-β-catenin + individual aptamers T1 · AP3
[2] = WB phospho-specific antibody; conditions: glycan gained; control: GFP-β-catenin + individual aptamers T1 · AP3
[3] = WB abundance of endogenous β-catenin; conditions: glycan gained; control: individual aptamers T1 · bc339

Protein | expression_or_secretion [3] | also measured
β-catenin: NL1F DS aptamers (protein) parent chain: MATQADLMELDMAMEPDRKAAVSHWQQQSYLDSGIHSGATTTAPSLSGKGNPEEEDVDTSQVLYEWEQGFSQSFTQEQVADIDGQYAMTRAQRVRAAMFPETLDEGMQIPSTQFDAAHPTNVQRLAEPSQMLKHAVVNLINYQDDAELATRAIPELTKLLNDEDQVVVNKAAVMVHQLSKKEASRHAIMRSPQMVSAIVRTMQNTNDVETARCTAGTLHNLSHHREGLLAIFKSGGIPALVKMLGSPVDSVLFYAITTLHNLLLHQEGAKMAVRLAGGLQKMVALLNKTNVKFLAITTDCLQILAYGNQESKLIILASGGPQALVNIMRTYTYEKLLWTTSRVLKVLSVCSSNKPAIVEAGGMQALGLHLTDPSQRLVQNCLWTLRNLSDAATKQEGMEGLLGTLVQLLGSDDINVVTCAAGILSNLTCNNYKNKMMVCQVGGIEALVRTVLRAGDREDITEPAICALRHLTSRHQEAEMAQNAVRLHYGLPVVVKLLHPPSHWPLIKATVGLIRNLALCPANHAPLREQGAIPRLVQLLVRAHQDTQRRTSMGGTQQQFVEGVRMEEIVEGCTGALHILARDVHNRIVIRGLNTIPLFVQLLYSPIENIQRVAAGVLCELAQDKEAAEAIEAEGATAPLTELLHSRNEGVATYAAAVLFRMSEDKPQDYKKRLSVELTSSLFRTEPMAWNETADLGLDIGAQGEPLGYRQDDPSYRSFHSGGYGQDALGMDPMMEHEMGGHHPGADYPVDGLPDLGHAQDLMDGLPPGDSNQLAWFDTDL |  | expression_or_secretion [1]: increases
β-catenin: NL1F30 (protein) parent chain: MATQADLMELDMAMEPDRKAAVSHWQQQSYLDSGIHSGATTTAPSLSGKGNPEEEDVDTSQVLYEWEQGFSQSFTQEQVADIDGQYAMTRAQRVRAAMFPETLDEGMQIPSTQFDAAHPTNVQRLAEPSQMLKHAVVNLINYQDDAELATRAIPELTKLLNDEDQVVVNKAAVMVHQLSKKEASRHAIMRSPQMVSAIVRTMQNTNDVETARCTAGTLHNLSHHREGLLAIFKSGGIPALVKMLGSPVDSVLFYAITTLHNLLLHQEGAKMAVRLAGGLQKMVALLNKTNVKFLAITTDCLQILAYGNQESKLIILASGGPQALVNIMRTYTYEKLLWTTSRVLKVLSVCSSNKPAIVEAGGMQALGLHLTDPSQRLVQNCLWTLRNLSDAATKQEGMEGLLGTLVQLLGSDDINVVTCAAGILSNLTCNNYKNKMMVCQVGGIEALVRTVLRAGDREDITEPAICALRHLTSRHQEAEMAQNAVRLHYGLPVVVKLLHPPSHWPLIKATVGLIRNLALCPANHAPLREQGAIPRLVQLLVRAHQDTQRRTSMGGTQQQFVEGVRMEEIVEGCTGALHILARDVHNRIVIRGLNTIPLFVQLLYSPIENIQRVAAGVLCELAQDKEAAEAIEAEGATAPLTELLHSRNEGVATYAAAVLFRMSEDKPQDYKKRLSVELTSSLFRTEPMAWNETADLGLDIGAQGEPLGYRQDDPSYRSFHSGGYGQDALGMDPMMEHEMGGHHPGADYPVDGLPDLGHAQDLMDGLPPGDSNQLAWFDTDL |  | other: Ser675 phosphorylation [2]: increases
β-catenin: NL8F100 (protein) parent chain: MATQADLMELDMAMEPDRKAAVSHWQQQSYLDSGIHSGATTTAPSLSGKGNPEEEDVDTSQVLYEWEQGFSQSFTQEQVADIDGQYAMTRAQRVRAAMFPETLDEGMQIPSTQFDAAHPTNVQRLAEPSQMLKHAVVNLINYQDDAELATRAIPELTKLLNDEDQVVVNKAAVMVHQLSKKEASRHAIMRSPQMVSAIVRTMQNTNDVETARCTAGTLHNLSHHREGLLAIFKSGGIPALVKMLGSPVDSVLFYAITTLHNLLLHQEGAKMAVRLAGGLQKMVALLNKTNVKFLAITTDCLQILAYGNQESKLIILASGGPQALVNIMRTYTYEKLLWTTSRVLKVLSVCSSNKPAIVEAGGMQALGLHLTDPSQRLVQNCLWTLRNLSDAATKQEGMEGLLGTLVQLLGSDDINVVTCAAGILSNLTCNNYKNKMMVCQVGGIEALVRTVLRAGDREDITEPAICALRHLTSRHQEAEMAQNAVRLHYGLPVVVKLLHPPSHWPLIKATVGLIRNLALCPANHAPLREQGAIPRLVQLLVRAHQDTQRRTSMGGTQQQFVEGVRMEEIVEGCTGALHILARDVHNRIVIRGLNTIPLFVQLLYSPIENIQRVAAGVLCELAQDKEAAEAIEAEGATAPLTELLHSRNEGVATYAAAVLFRMSEDKPQDYKKRLSVELTSSLFRTEPMAWNETADLGLDIGAQGEPLGYRQDDPSYRSFHSGGYGQDALGMDPMMEHEMGGHHPGADYPVDGLPDLGHAQDLMDGLPPGDSNQLAWFDTDL | increases | 
β-catenin: 3JB8F+12 (protein) parent chain: MATQADLMELDMAMEPDRKAAVSHWQQQSYLDSGIHSGATTTAPSLSGKGNPEEEDVDTSQVLYEWEQGFSQSFTQEQVADIDGQYAMTRAQRVRAAMFPETLDEGMQIPSTQFDAAHPTNVQRLAEPSQMLKHAVVNLINYQDDAELATRAIPELTKLLNDEDQVVVNKAAVMVHQLSKKEASRHAIMRSPQMVSAIVRTMQNTNDVETARCTAGTLHNLSHHREGLLAIFKSGGIPALVKMLGSPVDSVLFYAITTLHNLLLHQEGAKMAVRLAGGLQKMVALLNKTNVKFLAITTDCLQILAYGNQESKLIILASGGPQALVNIMRTYTYEKLLWTTSRVLKVLSVCSSNKPAIVEAGGMQALGLHLTDPSQRLVQNCLWTLRNLSDAATKQEGMEGLLGTLVQLLGSDDINVVTCAAGILSNLTCNNYKNKMMVCQVGGIEALVRTVLRAGDREDITEPAICALRHLTSRHQEAEMAQNAVRLHYGLPVVVKLLHPPSHWPLIKATVGLIRNLALCPANHAPLREQGAIPRLVQLLVRAHQDTQRRTSMGGTQQQFVEGVRMEEIVEGCTGALHILARDVHNRIVIRGLNTIPLFVQLLYSPIENIQRVAAGVLCELAQDKEAAEAIEAEGATAPLTELLHSRNEGVATYAAAVLFRMSEDKPQDYKKRLSVELTSSLFRTEPMAWNETADLGLDIGAQGEPLGYRQDDPSYRSFHSGGYGQDALGMDPMMEHEMGGHHPGADYPVDGLPDLGHAQDLMDGLPPGDSNQLAWFDTDL | increases | 
